# In US20120052007A1, “PERIPHERAL BLOOD SPARC BINDING ANTIBODIES AND USES THEREOF” (ABRAXIS BIOSCIENCE, LLC, priority 2010, published 2012):
# Entries after “also recorded” stand apart in the source; their conditions may differ.
# Columns and labels:
# HT29 (colon) = settings: for Tumor growth inhibition (TGI): HT29 xenograft, versus control group at euthanasia of control animals
# From the text: Female and male athymic NCr-nu mice between 5 and 6 weeks of age weighing approximately 20 g were purchased from Harlan, Inc. (Madison, Wis., USA). Human cancer cells HT29 (colon), PC3 (prostate), and MDA-MB-231 (breast) were propagated in cell culture and implanted subcutaneously at one million cells per flank of female (for MDA-MB-231 and HT29) or male (for PC3 prostate tumor) nude mice and allowed to grow to approximately 60-100 mm^3 before treatment was initiated. Treatments included 5-fluorouracil (5FU), docetaxel (Taxotere®), albumin-bound paclitaxel (nab-paclitaxel), nab-paclitaxel plus suntinib malate (Sutent®), or nab-paclitaxel plus bevacizumab (Avastin®) with or without exogenously administered SPARC). Control animals for each xenograft were administered PBS. The longest (length) and shortest (width) tumor diameters (millimeter) and tumor depth were measured twice weekly. The tumor volume was calculated with the formula: tumor volume (mm3)=width×length×depth. Tumor growth inhibition (TGI) was defined as the percentage of tumor volume reduction compared with the control group at the time of euthanasia for the control animals. Tumor doubling time was defined as the time required for the tumor volume to double […]. Animal weights were measured twice weekly. Statistical analysis was performed using the Prism program (GraphPad, San Diego, Calif., USA). Analysis of variance (ANOVA) statistic was used to compare tumor growth curves.
# HT29 colon xenografts = test: Tumor localization of Alexa 680 labeled antibodies in HT29 xenografts; assay type: in vivo, mice; settings: 200 ug/mouse i.v. day 1, Alexa 680 label, followed 36 days
# Experimental: Nude mice implanted with subcutaneous HT29 colon xenografts were treated with Imm series antibodies labeled with labeled with Alexa 680 fluorescent dye at dose of 200 ug/mouse. The labeled Imm antibodies were formulated in saline and administered intravenously on day 1. The fluorescent signal was followed in these mice over the course of 36 days.
# SPARC [1] = target: T1, SPARC (Homo sapiens, UniProt P09486); test: ELISA comparing Imm11, Imm12, Imm13, Imm14 binding to human SPARC; settings: ELISA (FIG. 13)
# T1 sequence (P09486 18-303): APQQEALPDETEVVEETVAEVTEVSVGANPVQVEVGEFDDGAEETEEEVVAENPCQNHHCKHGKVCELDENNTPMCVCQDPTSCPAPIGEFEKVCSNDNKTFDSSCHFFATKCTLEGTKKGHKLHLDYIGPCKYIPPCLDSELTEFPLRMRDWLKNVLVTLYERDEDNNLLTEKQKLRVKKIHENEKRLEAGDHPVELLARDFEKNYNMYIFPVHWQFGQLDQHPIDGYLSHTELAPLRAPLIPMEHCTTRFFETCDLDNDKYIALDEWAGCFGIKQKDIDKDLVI
# Experimental: An ELISA assay was also performed to directly compare the SPARC binding capabilities of selected mouse-derived anti human SPARC antibodies, Imm11 and Imm12, to the fully human Imm13 and Imm14, the results of which are presented in FIG. 13.
# [2] = target: T2, recombinant human SPARC (Bio1-SPARC) (Homo sapiens, UniProt P09486); test: ELISA binding to recombinant human SPARC (Bio1-SPARC); settings: for binding to Bio1-SPARC compared with HTI-SPARC (ELISA): Bio1-SPARC versus human platelet SPARC (FIG. 9)
# T2 sequence (P09486 18-303): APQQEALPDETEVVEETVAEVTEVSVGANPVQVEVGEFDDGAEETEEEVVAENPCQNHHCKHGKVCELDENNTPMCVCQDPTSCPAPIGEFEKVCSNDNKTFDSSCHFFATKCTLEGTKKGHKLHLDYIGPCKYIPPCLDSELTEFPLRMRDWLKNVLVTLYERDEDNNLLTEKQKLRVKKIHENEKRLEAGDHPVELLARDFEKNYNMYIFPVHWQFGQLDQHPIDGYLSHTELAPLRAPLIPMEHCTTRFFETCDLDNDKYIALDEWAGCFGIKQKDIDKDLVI
# Experimental: The ability of Imm1 through Imm12 (the mouse-derived anti-human SPARC antibodies) to bind recombinant human SPARC (Bio 1-SPARC) was characterized by multiple ELISA assays performed at various stages of purification. FIG. 7 presents the results of an ELISA assay performed on a serial dilution (1:1, 1:10, and 1:100) of antibody supernatants prior to purification. […] Another ELISA assay was performed with the purified antibodies (FIG. 8) at concentrations of 0.04 μg/mL, 0.2 μg/mL, 1 μg/mL, and 5 μg/mL. […] An additional ELISA was performed to compare the binding of the mouse derived Immseries antibodies to two different varieties of SPARC: Bio1-SPARC, and human platelet SPARC (HTI-SPARC) (FIG. 9).
# ELISA assays were also used to characterize the SPARC binding of the fully human SPARC binding antibodies, Imm13 and Imm14. […] Surface plasmon resonance binding assays, performed on the Biacore 3000® (GE/Biacore International AB, Uppsala, Sweden), tested the binding of Fab 16 to both varieties of SPARC immobilized on a sensorchip (FIGS. 11 and 12).
# [3] = test system: LL/2 (Lewis Lung Carcinoma); test: LL/2 Lewis Lung Carcinoma survival / lung metastasis model; assay type: in vivo, mice; settings: 200 μg/mouse i.p. twice weekly for 4 weeks, versus mouse control IgG
# Experimental: C57BL male mice (approx. 6 weeks old) were weighed, and then injected intravenously with approximately 1×10^6 cells (approximately 0.1 mL) of LL/2 (Lewis Lung Carcinoma) with 25-gauge needle. A minimum of 10 animals was used per group. Twice weekly for 4 weeks, each animal in all groups received 200 μg/mouse of a test antibody or mouse IgG. These test articles/antibodies were dosed via intra-abdominal injection into the peritoneal cavity with a 25-27 gauge needle. The first dose was administered within 30 minutes of tumor cell injection.
# Animals were weighed prior to tumor cell injection, and twice weekly prior to dosing. All animals were examined twice daily for mortality/morbidity. At the end of the experiment, the mice were killed, and primary tumors and lungs were removed, fixed, and embedded. Euthanized animals and any animals found dead prior to rigor mortis were necropsied. Plasma and lungs from all animals were collected and weighed at termination. Lungs were infused with and then immersed in 10% Neutral buffered formalin. Tissues were stored for additional gross and histopathologic analysis.
# Animals were administered either mHTI, Imm12, or Imm14. A negative control group was administered mIgG. The antibodies were formulated in PBS and were administered in at dose of 200 μg/mouse, twice weekly, for four weeks. The survival of the animals was then recorded over […].
# mouse SPARC = target: T3, mouse SPARC (Mus musculus, UniProt P07214); test: ELISA binding to murine SPARC (FIG. 16); settings: ELISA (FIG. 16)
# T3 sequence (P07214 18-302): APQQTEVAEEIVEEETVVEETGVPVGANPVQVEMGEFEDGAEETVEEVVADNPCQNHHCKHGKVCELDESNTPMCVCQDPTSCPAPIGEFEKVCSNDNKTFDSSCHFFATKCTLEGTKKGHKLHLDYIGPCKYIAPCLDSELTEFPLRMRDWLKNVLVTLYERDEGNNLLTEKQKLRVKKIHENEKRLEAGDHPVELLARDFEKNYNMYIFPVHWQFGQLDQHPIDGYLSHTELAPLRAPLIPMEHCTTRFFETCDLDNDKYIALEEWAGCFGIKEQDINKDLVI
# denatured human SPARC = target: T4, denatured human SPARC (Homo sapiens, UniProt P09486); test: Western blot against denatured SPARC; assay type: binding; settings: SDS polyacrylamide gel
# T4 sequence (P09486 18-303): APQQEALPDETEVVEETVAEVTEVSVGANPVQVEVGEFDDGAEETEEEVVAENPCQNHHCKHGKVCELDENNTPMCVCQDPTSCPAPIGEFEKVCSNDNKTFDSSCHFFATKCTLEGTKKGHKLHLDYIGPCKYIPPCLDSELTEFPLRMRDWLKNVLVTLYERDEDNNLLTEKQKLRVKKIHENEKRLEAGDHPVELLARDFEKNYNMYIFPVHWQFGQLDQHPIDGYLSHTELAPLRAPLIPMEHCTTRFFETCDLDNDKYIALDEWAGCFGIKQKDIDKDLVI
# From the text: Western blotting was used to determine whether the Imm series antibodies bind to linear or conformational epitopes. In this analysis, SPARC protein was run on a polyacrylamide gel in the presence of SDS. Accordingly, the SPARC protein on the gel was in its denatured form. The Imm series antibodies were used as primary antibodies and were then probed with goat anti-mouse IgG. BSA was used as a negative control.
# SPARC [4] = target: T1, SPARC; test: ELISA binding to human SPARC (FIG. 16); settings: ELISA (FIG. 16)
# [5] = test system: recombinant human SPARC protein; test: Tube Formation Assay (AngioKit) with SPARC and SPARC binding antibodies; assay type: cell-based; settings: 300 μg/mL antibody with 10 μg/mL recombinant human SPARC
# Experimental: This assay was performed using the TCS Cellworks human AngioKit model kit (TCS-ZHA-1000, TCS Cell Works, Buckingham, UK) as described in Example 10 above. The media contained 10 μg/mL recombinant human SPARC protein. The media also contained 300 μg/mL of one of the above prepared mouse SPARC binding monoclonal antibodies (Imm12, Imm14, mHTI), or a control (mouse IgG).
# To examine the effect of SPARC on tubule formation, and interference with that function by SPARC binding monoclonal antibodies, the number of tubules formed and their length was evaluated by light microscopy.
# [6] = antibody supernatants prior to purification, dilutions 1:1, 1:10, 1:100 (FIG. 7)
# [7] = purified antibodies at 0.04, 0.2, 1 and 5 μg/mL (FIG. 8)
molecule,measurement,setting,value
"O=c1[nH]cc(F)c(=O)[nH]1 [Imm 5-FU, 5-fluorouracil]",Tumor growth inhibition (TGI),HT29 (colon),89.8%
same,body weight / tolerability,"HT29 (colon); mouse, in vivo",without decrease in body weight
"bevacizumab: anti-VEGF antibody, Avastin",Tumor growth inhibition (TGI),HT29 (colon),75%
"Imm2: mouse-derived anti-human SPARC antibody from hybridoma, IgG1, 2b (κ) (antibody, V domains shown) VH: TVTGYSITSDHAWSWIRQFPGNKLEWMGYISYSGSTSYNPSLKSRVSVTRDTSKNHFFLQLNSVTTEDTATYYCARAAFIGGWFAYWGQGTT VL: GEKVTITCSASSSVSYMHWFQQKPGTSPKLWIYSTPNLASGVPARFSGSGSGTSYSLTISRMEAEDAATYYCQQRSSYPLTFGGGTKLELKQ",localization at the tumor site,HT29 colon xenografts,localizes well
"Imm13: fully human anti-human SPARC antibody created from Fab6, IgG1 (κ) (antibody, V domains shown) VH: QVQLVQSGGGLVQPGGSLRLSCAASGFTVSSNYMSWVRQAPGKGLEWVSVIYSGGSTYYADSVKGRFTISRDNSKNTLYLQMNSLRAEDTAVYYCARGIAAAGLDYWGQGTLVTVSP VL: ELVLTQPPSVSAAPGQKVTISCSGSSSNIGNNYVYWYQQLPGTAPKLLIYRNNQRPSGVPDRFSGSKSGTSASLAISGLRSEDEADYYCAAWDDSLSGWVFGGGTKLTVL",affinity for SPARC relative to mouse derived Imm11 and Imm12,SPARC [1],higher affinity
"Imm4: mouse-derived anti-human SPARC antibody from hybridoma, IgG1 (κ) (antibody, V domains shown) VH: AASGFAFSSYDMSWVRQTPEKRLEWVAYITSGGGSTYYPDTVKGRFTISRDNAKNTLYLQMSSLKSEDTAMYYCAGSRSWFAYWGQGTTVTV VL: GEGVSFSCRASQSIGTGIHWYQRRTNGSPRLLIKYASESISGIPSRFSGSGSGTDFTLTINSVESEDIADYYCQQSYSWPLTFGAGTKLELK",binding to Bio1-SPARC compared with HTI-SPARC (ELISA),[2],bind Bio1-SPARC significantly better than HTI-SPARC
same,Bio1-SPARC binding (ELISA),[2]; [6],highest Bio1-SPARC binding
same,Bio1-SPARC binding (ELISA),[2]; [7],highest Bio1-SPARC binding
"Imm10: mouse-derived anti-human SPARC antibody from hybridoma, IgG1 (κ) (antibody, V domains shown) VH: AASGFTFSYYGMSWVRQTPDKRLEWVATISSGGSYTYYPDSVKGRFTISRDNSENTLYLQMNSLKSEDTAMYFCARRGSSGDYYGMDYWGQG VL: GEKVTMSCKSSQSLLYSNSQKNYLAWYQQKPGQSPKLLIYWASTRESGVPPRFTGSGSGTDFSLTISSVKAEDLAVYYCQQYYSFPRTFGGG",Bio1-SPARC binding (ELISA),[2]; [6],highest Bio1-SPARC binding
"Imm6: mouse-derived anti-human SPARC antibody from hybridoma, IgG1 (κ) (antibody, V domains shown) VH: TVTGYSITSDSAWNWIRQFPGNKLEWMGHISYSGSTSYNPSLKSRISITRDTSKDQFFLQLNSVTTEDTATYYCARGSYYGNFGFTYWGQGT VL: GETVTITCQASENIASDLAWYQKEGRSPQLLVYEARNLADGVPSRFSGSGSDTLYSLNIHSLQSEDVARYYCQHYYGTPWTFGGGTKPRAN",Bio1-SPARC binding (ELISA),[2]; [6],highest Bio1-SPARC binding
"Imm12: mouse-derived anti-human SPARC antibody from hybridoma, IgG1 (κ), SEQ ID NOs 7 and 14 (antibody, V domains shown) VH: KASGYTFTKYGMNWVKQAPGKGLQWMGWINTNTGEPTYAEEFKGRFAFSLETSASTAYLQINNLENADSATYFCTRGSSYFDYWGQGTTVTV VL: GQRATISYRASKSVSTSGYSYMHWNQQKPGQPPRLLIYLVSNLESGVPARFSGSGSGTDFTLNIHPVEEEDAATYYCQHIRELTRSVEAPSS",localization at the tumor site,HT29 colon xenografts,do not localize at the tumor site
same,inhibition of lung LL/2 metastasis,[3],did not inhibit lung LL/2 metastasis
same,binding to Bio1-SPARC compared with HTI-SPARC (ELISA),[2],bind both varieties of human SPARC equally well
same,Bio1-SPARC binding (ELISA),[2]; [6],highest Bio1-SPARC binding; also recorded: highest binding overall
same,Bio1-SPARC binding (ELISA),[2]; [7],highest Bio1-SPARC binding
same,binding to mouse SPARC,mouse SPARC,not mouse SPARC
same,binding to denatured SPARC,denatured human SPARC,binding
same,binding to human SPARC,SPARC [4],specifically bind to human SPARC
same,effect on SPARC-induced tubule formation,[5],only very slight formation of very short tubules
